Assay results reported in patent publication US20250042994A1 (HAINAN SIMCERE ZAIMING PHARMACEUTICAL, published 2025).
One block for each binder: values may come before it.

How the values were obtained:
[1] = biological target: T1, human CD19 on Raji cells (human, UniProt P15391 20-556); test: FACS on Raji cells
T1 construct: whole, on cells
T1 sequence (looked up): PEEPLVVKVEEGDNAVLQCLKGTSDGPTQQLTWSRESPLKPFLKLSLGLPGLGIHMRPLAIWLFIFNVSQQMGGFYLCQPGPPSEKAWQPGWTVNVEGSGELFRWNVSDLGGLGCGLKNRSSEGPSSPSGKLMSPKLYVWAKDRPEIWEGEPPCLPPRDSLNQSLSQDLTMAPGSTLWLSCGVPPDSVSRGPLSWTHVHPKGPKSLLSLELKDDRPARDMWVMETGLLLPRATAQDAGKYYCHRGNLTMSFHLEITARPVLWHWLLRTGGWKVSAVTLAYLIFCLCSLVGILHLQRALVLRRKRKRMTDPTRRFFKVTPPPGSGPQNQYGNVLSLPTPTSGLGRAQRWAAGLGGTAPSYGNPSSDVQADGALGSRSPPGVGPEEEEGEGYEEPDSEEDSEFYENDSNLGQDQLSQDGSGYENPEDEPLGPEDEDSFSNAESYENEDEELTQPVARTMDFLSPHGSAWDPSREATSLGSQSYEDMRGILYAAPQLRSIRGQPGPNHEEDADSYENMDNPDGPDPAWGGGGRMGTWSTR

[2] = biological target: T2, cynomolgus monkey CD19 on peripheral blood B cells (cynomolgus monkey (Macaca fascicularis), UniProt A0A2K5W8L9 20-557); test: FACS, cynomolgus PBMC, CD20+ B cells
T2 construct: whole, on cells; also called cynomolgus monkey B cells
T2 sequence: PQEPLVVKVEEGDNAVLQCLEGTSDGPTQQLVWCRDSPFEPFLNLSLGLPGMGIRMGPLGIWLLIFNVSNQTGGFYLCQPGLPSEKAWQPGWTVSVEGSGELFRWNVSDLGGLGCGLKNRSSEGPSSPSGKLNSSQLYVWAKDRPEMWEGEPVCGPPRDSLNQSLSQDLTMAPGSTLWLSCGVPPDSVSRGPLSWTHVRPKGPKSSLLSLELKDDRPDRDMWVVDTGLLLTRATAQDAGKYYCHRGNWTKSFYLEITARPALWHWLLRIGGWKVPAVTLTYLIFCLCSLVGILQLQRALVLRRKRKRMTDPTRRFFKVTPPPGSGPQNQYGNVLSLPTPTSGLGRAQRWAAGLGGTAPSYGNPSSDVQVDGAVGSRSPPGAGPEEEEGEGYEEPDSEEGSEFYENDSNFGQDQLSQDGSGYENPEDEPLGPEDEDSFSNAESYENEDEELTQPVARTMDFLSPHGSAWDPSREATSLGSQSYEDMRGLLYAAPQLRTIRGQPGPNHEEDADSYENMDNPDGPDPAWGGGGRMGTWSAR

[3] = biological target: T3, human CD19 on CHO-K1-human CD19 cells (human, UniProt P15391 20-556); test: FACS on CHO-K1-human CD19 cells
T3 construct: whole, on cells; also called CHO-K1-human CD19-2C8
T3 sequence (looked up): T1 sequence (looked up)

[4] = biological target: T4, monkey CD19 on HEK293T-monkey CD19 cells (monkey); test: FACS on HEK293T-monkey CD19 cells
T4 construct: whole, on cells
In short: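 Cells blocked in PBS + 2% (w/w) BSA at 2×10⁶ cells/ml, then incubated with test antibody on ice for 2 h. After washes, binding read by flow cytometry as mean fluorescence intensity (MFI). EC50 from fitted MFI curves. Parental HEK293T cells run by the same method.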

[5] = biological target: T5, monkey CD19 protein (monkey); test: ELISA, coated monkey CD19 protein
T5 construct: also called monkey CD19-His protein
Method: (§1) Human CD19-his protein (purchased from ACROBiosystems, catalog number: CD9-H52H2) was diluted with PBS to a final concentration of 4 μg/mL, and then added to a 96-well ELISA plate at 100 μl/well. The plate was sealed with a plastic film and incubated overnight at 4° C., the plate was washed 2 times with PBS the next day, and then a blocking solution [PBS+2% (w/w) BSA] was added for blocking at room temperature for 2 h. The blocking solution was poured off, and 100 nM gradiently diluted CD19 chimeric antibody or control antibody was added at 50 μl/well. After incubation at 37° C. for 2 h, the plate was washed 3 times with PBS. […] TMB substrate was added at 50 μl/well, and incubated at room temperature for 10 min, and then a stop solution (1.0 N HCl) was added at 50 μl/well. The OD450 nm values were read by an ELISA microplate reader (Multimode Plate Reader, EnSight, purchased from Perkin Elmer).
(§2) In order to detect the species cross-binding activity of the chimeric antibodies, an ELISA plate was coated with commercial murine CD19 (ACROBiosystems, catalog number: 50510-M08H) and monkey CD19 (ACROBiosystems, catalog number: 90051-C08H), respectively, and the ELISA detection was performed according to the method in example 5.1.

[6] = biological target: T5, monkey CD19 protein; test: ELISA on coated monkey CD19-His
Method: as §1, §2

[7] = biological target: T6, human CD19 exon1-3-His tag protein (human, UniProt P15391 20-186, limits assumed); test: ELISA on coated human CD19 exon 1-3-His
T6 construct: membrane-distal part of the extracellular region, made in HEK293E cells; not shown: His tag
T6 sequence (looked up): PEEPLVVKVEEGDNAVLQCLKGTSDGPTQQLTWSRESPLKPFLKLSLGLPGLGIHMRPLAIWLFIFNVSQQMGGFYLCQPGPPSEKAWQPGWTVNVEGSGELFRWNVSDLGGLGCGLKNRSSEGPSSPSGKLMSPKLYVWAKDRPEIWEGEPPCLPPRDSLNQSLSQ

[8] = biological target: T7, monkey CD19-His protein (monkey); test: SPR Biacore, method of example 7.1, monkey CD19-His
T7 construct: bought protein; also called monkey CD19 protein
Method: A sample buffer and a running buffer were HBS-EP+ (10 mM HEPES, 150 mM NaCl, 3 mM EDTA and 0.05% surfactant P20) (GE Healthcare; BR-1006-69). The flow-through cell was set to 25° C. The sample block was set to 16° C. Both were pretreated with the running buffer. In each cycle, an antibody to be detected was first captured with a Protein A chip, and then a single concentration of CD19 antigen protein was injected. The binding and dissociation processes of the antibody and the antigen protein were recorded, and finally Glycine pH 1.5 (GE Healthcare; BR-1003-54) was used to complete chip regeneration. The binding was measured by injecting different concentrations of recombinant human CD19-His proteins in a solution for 240 s with a flow rate of 30 μl/min. The concentration started from 200 nM (see the detailed results for the actual concentration in the test) and was diluted at 1:1, making a total of 5 concentrations. The dissociation phase was monitored for up to 600 s and was triggered by switching from sample solution to running buffer. The surface was regenerated by washing with a 10 mM glycine solution (pH 1.5) for 30 s at a flow rate of 30 μl/min. Bulk refractive index difference was corrected by subtracting the response obtained from the goat anti-human Fc surface. Blank injection was also subtracted (=double reference). For calculation of apparent KD and other kinetic parameters, Langmuir 1:1 model was used.
According to the method in example 7.1, the affinity of the chimeric antibodies to monkey CD19 (ACROBiosystems, catalog number: 90051-C08H) protein was determined.

[9] = biological target: T8, Human CD19-his protein (human, UniProt P15391 20-291); test: SPR Biacore, Ab captured on Protein A, CD19-His analyte
T8 construct: bought protein; also called recombinant human CD19-His; CD19 full-length protein; not shown: His tag
T8 sequence (looked up): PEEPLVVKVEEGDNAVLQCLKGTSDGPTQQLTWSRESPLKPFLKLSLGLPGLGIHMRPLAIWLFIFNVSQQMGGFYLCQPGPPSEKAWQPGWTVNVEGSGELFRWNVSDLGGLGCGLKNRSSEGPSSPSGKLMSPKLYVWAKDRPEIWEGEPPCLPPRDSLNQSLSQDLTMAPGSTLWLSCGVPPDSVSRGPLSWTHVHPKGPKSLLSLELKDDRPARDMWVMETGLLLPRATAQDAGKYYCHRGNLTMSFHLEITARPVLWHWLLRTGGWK
In short: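 Antibodies were captured on a Protein A chip at 25 °C in HBS-EP+. Human CD19-His was injected for 240 s at 30 μl/min at 5 concentrations from 200 nM (1:1 dilutions), with dissociation up to 600 s. Data were double-referenced and fitted to a Langmuir 1:1 model for apparent KD.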

- EC50 [1]: 8.38 nM
- Maximum mean fluorescence intensity [1]: 25900
- Proportion of chimeric antibody positive cells to B cells (%) at 1 nM [2]: 6%
- Proportion of chimeric antibody positive cells to B cells (%) at 10 nM [2]: 25%
- Proportion of chimeric antibody positive cells to B cells (%) at 100 nM [2]: 79%
- EC50 [3]: 18 nM
- Maximum mean fluorescence intensity [3]: 3380
- EC50 [4]: 9.64 nM
- Maximum mean fluorescence intensity [4]: 156000
- OD450 at 0.0001 nM [5]: 0.07 OD450
- OD450 at 0.001 nM [5]: 0.1 OD450
- OD450 at 0.01 nM [5]: 0.24 OD450
- OD450 at 0.10 nM [5]: 1.11 OD450
- OD450 at 1.00 nM [5]: 2.05 OD450
- OD450 at 10 nM [5]: 2.4 OD450
- OD450 at 100 nM [5]: 2.75 OD450
- EC50 (read off the curve) [6]: ~0.2 nM
B1: F3.118.14 (antibody, human IgG1, V domains shown)
VH: QVQLQQSGAELVRPGASVTLSCKASGYTFPDYEIHWVKQTPVHGLEWIGAIDPETGGIGYNQKFTGKAMLTADKSSSTAYMELRSLTSEDSAVYFCTRNYGSRWGQGSTLTVSS
VL: not shown
notes: human-murine chimeric antibody, human IgG1

- EC50 (read off the curve) [7]: ~0.3 nM
- Kd [8]: 0.00583 nM
- koff [8]: 9.72e-08 s⁻¹
- kon [8]: 16700 M⁻¹ s⁻¹
- Kd [9]: 6.05 nM
- koff [9]: 0.000326 s⁻¹
- kon [9]: 53900 M⁻¹ s⁻¹
B2: F3.118.14 (antibody, human IgG1, V domains shown)
VH: B1 VH
VL: not shown
notes: human-murine chimeric antibody, human IgG1 constant

- EC50 [1]: 1.62 nM
- Maximum mean fluorescence intensity [1]: 27400
- Proportion of chimeric antibody positive cells to B cells (%) at 1 nM [2]: 4%
- Proportion of chimeric antibody positive cells to B cells (%) at 10 nM [2]: 18%
- Proportion of chimeric antibody positive cells to B cells (%) at 100 nM [2]: 56%
- EC50 [3]: 3.13 nM
- Maximum mean fluorescence intensity [3]: 4990
- EC50 [4]: 6.45 nM
- Maximum mean fluorescence intensity [4]: 179000
- OD450 at 0.0001 nM [5]: 0.07 OD450
- OD450 at 0.001 nM [5]: 0.11 OD450
- OD450 at 0.01 nM [5]: 0.38 OD450
- OD450 at 0.10 nM [5]: 1.48 OD450
- OD450 at 1.00 nM [5]: 2.27 OD450
- OD450 at 10 nM [5]: 2.51 OD450
- OD450 at 100 nM [5]: 2.49 OD450
- EC50 (read off the curve) [6]: ~0.07 nM
B3: F3.77.6 (antibody, human IgG1, V domains shown)
VH: EFQLQQSGPELVKPGASVKISCKASGYSFTDYNMNWVKQSNGKSLEWIGTINPNYITSYNQKFKGKATLTVDQSSSTAYMQLNSLTSEDSAVYYCAGDYKGYWGQGTTLTVSS
VL: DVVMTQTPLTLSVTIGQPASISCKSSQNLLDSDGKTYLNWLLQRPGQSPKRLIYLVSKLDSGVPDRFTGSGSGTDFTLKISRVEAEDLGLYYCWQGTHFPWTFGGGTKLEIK
notes: as for B1
